Results published in patent publication US7067619B2, “Integrin-binding peptides” (La Jolla Cancer Research Foundation, priority 1993, dated 2006).
Bridge positions count the residues as written; N and C are the ends. Ends that are not written are not given here.

Molecular target: αvβ3 integrin (Homo sapiens, UniProt P05106+P06756)
Assay: Panning and binding of peptide-displaying phage on αvβ3 integrin
Set-up: The αvβ3, αvβ5 and α5β1 integrins were isolated from human placental extracts; from tissue; host or cells: human placenta
Details: phage-displayed sequence
From the text: In addition, most of the phage-binding activity in the αvβ3 preparation was captured into microliter wells coated with antibodies against the αv or β3 subunits as described previously (Koivunen et al., J. Biol. Chem., 268:20205–10 (1993). The αIIbβ3 integrin was isolated from outdated platelets (Pytela et al., Science, 231:1559–1562 (1986)).
Peptide libraries were constructed in fuse 5 vector (Scott and Smith, Science 249:386–390 (1990)) as described previously (Koivunen et al., J. Cell Biol., 124:373–380 (1994). The CX5C, CX6C, CX7C and CX9 [SEQ ID NOs:39–42, respectively] libraries were prepared using synthetic oligonucleotides containing core sequences TGT(NNK)5TGT, TGT(NNK)6TGT, TGT(NNK)7TGT and TGT(NNK)9 [SEQ ID NOS:43–46, respectively] (N=equal molar mixture of A, C, G, T; K=G or T), respectively. The oligonucleotides were made double-stranded by PCR amplification with 5 cycles, purified and ligated to the N-terminus of pIII gene of fuse 5 vector. […]
Binding of individual cloned phage to integrins was studied in microliter wells as described in Koivunen et al., J. Cell. […] Phage that were bound were determined by their ability to infect F-pilus positive K91kan bacteria. Bacteria were grown overnight in microliter wells in the presence of tetracycline and the absorbance indicative of bacterial growth was read at 600 nm with an ELISA plate reader.

Sequence of αvβ3 integrin (P06756 31-889 limits assumed): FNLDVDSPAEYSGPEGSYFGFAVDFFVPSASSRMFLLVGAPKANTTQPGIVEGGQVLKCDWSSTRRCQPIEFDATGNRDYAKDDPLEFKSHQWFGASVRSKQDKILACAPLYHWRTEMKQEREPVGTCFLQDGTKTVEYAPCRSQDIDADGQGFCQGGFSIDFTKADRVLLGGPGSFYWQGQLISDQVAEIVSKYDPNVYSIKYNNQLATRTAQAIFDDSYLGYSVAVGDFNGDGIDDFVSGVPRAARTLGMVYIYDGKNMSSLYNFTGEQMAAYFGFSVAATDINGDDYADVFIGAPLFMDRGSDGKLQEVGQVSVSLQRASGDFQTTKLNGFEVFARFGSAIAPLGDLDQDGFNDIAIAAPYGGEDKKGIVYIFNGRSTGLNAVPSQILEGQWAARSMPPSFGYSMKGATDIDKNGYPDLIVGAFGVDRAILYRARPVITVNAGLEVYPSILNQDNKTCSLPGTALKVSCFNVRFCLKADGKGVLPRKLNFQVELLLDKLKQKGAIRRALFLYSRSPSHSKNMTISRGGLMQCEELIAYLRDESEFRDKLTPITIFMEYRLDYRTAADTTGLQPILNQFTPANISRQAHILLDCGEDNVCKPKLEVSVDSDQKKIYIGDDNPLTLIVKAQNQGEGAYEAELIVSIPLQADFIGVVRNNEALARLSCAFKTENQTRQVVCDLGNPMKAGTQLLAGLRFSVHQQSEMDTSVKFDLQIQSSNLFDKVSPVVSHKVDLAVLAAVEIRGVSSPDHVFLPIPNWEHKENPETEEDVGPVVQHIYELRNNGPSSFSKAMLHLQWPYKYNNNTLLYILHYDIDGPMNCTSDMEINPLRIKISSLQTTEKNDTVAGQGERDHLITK
Sequence of αvβ3 integrin (P06756 891-1048 partner limits assumed): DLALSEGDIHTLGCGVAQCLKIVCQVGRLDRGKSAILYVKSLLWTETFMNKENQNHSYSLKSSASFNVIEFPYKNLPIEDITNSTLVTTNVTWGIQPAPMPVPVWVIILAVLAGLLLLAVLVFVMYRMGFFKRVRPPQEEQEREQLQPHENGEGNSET
Sequence of αvβ3 integrin (P05106 27-788): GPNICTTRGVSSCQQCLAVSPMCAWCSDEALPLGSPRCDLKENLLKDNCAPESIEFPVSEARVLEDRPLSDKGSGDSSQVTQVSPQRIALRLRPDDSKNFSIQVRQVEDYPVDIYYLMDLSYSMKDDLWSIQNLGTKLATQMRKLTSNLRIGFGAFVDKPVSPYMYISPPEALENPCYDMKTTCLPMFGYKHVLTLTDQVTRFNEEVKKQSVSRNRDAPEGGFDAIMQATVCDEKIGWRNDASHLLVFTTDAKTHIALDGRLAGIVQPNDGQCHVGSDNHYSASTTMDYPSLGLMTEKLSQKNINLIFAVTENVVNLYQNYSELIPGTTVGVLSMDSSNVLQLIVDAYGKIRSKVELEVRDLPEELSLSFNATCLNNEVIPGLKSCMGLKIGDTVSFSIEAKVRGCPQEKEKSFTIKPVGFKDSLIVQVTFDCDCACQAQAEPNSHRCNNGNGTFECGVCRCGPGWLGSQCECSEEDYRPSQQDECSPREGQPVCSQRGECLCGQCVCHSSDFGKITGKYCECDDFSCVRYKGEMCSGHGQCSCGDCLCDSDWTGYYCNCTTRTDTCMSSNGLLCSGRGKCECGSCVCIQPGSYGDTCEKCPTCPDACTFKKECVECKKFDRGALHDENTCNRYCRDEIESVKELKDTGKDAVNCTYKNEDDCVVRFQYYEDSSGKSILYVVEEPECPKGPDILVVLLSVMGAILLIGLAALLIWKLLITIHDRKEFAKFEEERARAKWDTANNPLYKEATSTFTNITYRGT

With “A*CPSRLDSPC*G (ACPSRLDSPCG; disulfide 2-10 (inferred))” the “binding of peptide-displaying phage to the αvβ3 integrin” value was “bound to αvβ3”.
